{"source": "the DeepSol protein solubility set", "data": [{"test": "soluble on expression in E. coli; label from the status in PepcDB or PDB records", "values": [{"sequence": "MTRAKQIILWASLSAMPLIAQASERSDDEIKALVYQAILERPEIILQAVEQLQQAEEAAQAASAHAALTENRDSLFNDPNAPVLGNPEGDVTVVEFFDYNCPYCRRAMAEVQGLVDADPNVRLVYREWPILGEGSDFAARAALAARQQGKYEAFHWALMGMSGKANETGVLRIAREVGLDTEQLQRDMEAPEVTAHIAQSMALAQKLGFNGTPSFVVEDALVPGFVEQSQLQDAVDRARKAAAK", "soluble on expression in E. coli": "not soluble"}, {"sequence": "MTRGRVIQVMGPVVDVKFENGHLPAIYNALKIQHKARNENEVDIDLTLEVALHLGDDTVRTIAMASTDGLIRGMEVIDTGAPISVPVGQVTLGRVFNVLGEPIDLEGDIPADARRDPIHRPAPKFEELATEVEILETGIKVVDLLAPYIKGGKIGLFGGAGVGKTVLIQELIHNIAQEHGGISVFAGVGERTREGNDLYHEMKDSGVISKTAMVFGQMNEPPGARMRVALTGLTMAEYFRDEQGQDGLLFIDNIFRFTQAGSEVSALLGRMPSAIGYQPTLATEMGQLQERITSTAKGSITSIQAIYVPADDYTDPAPATTFSHLDATTNLERKLAEMGIYPAVDPLVSTSRALAPEIVGEEHYQVARKVQQTLERYKELQDIIAILGMDELSDEDKLVVHRARRIQFFLSQNFHVAEQFTGQPGSYVPVKETVRGFKEILEGKYDHLPEDRFRLVGRIEEVVEKAKAMGVEV", "soluble on expression in E. coli": "soluble"}, {"sequence": "MTRILPCLFLVLLAAAPLLANPANPLNLKKHHGVFCDVCKALVEGGEKVGDDDLDAWLDVNIGTLCWTMLLPLHHECEEELKKVKKELKKDIENKDSPDKACKDVDLC", "soluble on expression in E. coli": "not soluble"}, {"sequence": "MTRPDNEPARLRSVAENLAAEAAAFVRGRRAEVFGISRAGDGDGAVRAKSSPTDPVTVVDTDTERLLRDRLAQLRPGDPILGEEGGGPADVTATPSDRVTWVLDPIDGTVNFVYGIPAYAVSIGAQVGGITVAGAVADVAARTVYSAATGLGAHLTDERGRHVLRCTGVDELSMALLGTGFGYSVRCREKQAELLAHVVPLVRDVRRIGSAALDLCMVAAGRLDAYYEHGVQVWDCAAGALIAAEAGARVLLSTPRAGGAGLVVVAAAPGIADELLAALQRFNGLEPIPDALEHHHHHH", "soluble on expression in E. coli": "soluble"}, {"sequence": "MTRQSQDGDATSTPAERAAAARAAAAEAARIAAEAAAAAEEAEKEARDAEAAENRAPAGVAASSGAAADIAAGYSSEGAALELGTVVLDGVVDSAARVRIPLATVNRHGLVAGATGTGKTKTLQGIAEQLSAAGVPVVMADMKGDLSGLSQPGEAGDKITTRASETGDGEWRPAASPVEFLSLGTEGLGIPVRATITAFGPILLAKVLGLNETQESTLGLIFHWADVQGLALLDLLDLRSVIAHLTSDEGKADLKGIGGVSPATAGVILRALVNLEADGGDTFFGEPELETEDLLRVIDGKGVITLFELGAQAARPALFTTFLMWVLADLFQTLPEEGDLDKPKLVFIFDEAHLLFADASKAFLQQVEQTVKLIRSKGVGVFFCTQLPTDVPNGVLSQLGARIQHALRAFTPDDQKALTKTVRTYPTTENYDLEKALTSLGIGEAIVTVLSERGAPTPVAWTRIRPPRSLMDTIGTDAITAAASSSPLSAKYGQTVDRESAYEKLTAKVAGAPAAEPGLDLPPLPDLPTPPPAQPEGPNMAEQILGNSAVKSFLRSAASAAGREISRSIFGTGKRRRR", "soluble on expression in E. coli": "not soluble"}, {"sequence": "MTRRPDRKDVATVDELHASATKLVGLDDFGTDDDNYREALGVLLDAYQGEAGLTVLGSKMNRFFLRGALVARLLSQSAWKQYPEHVDVAIKRPIFVTGLVRTGTTALHRLLGADPAHQGLHMWLAEYPQPRPPRETWESNPLYRQLDADFTQHHAENPGYTGLHFMAAYELEECWQLLRQSLHSVSYEALAHVPSYADWLSRQDWTPSYCRHRRNLQLIGLNDAEKRWVLKNPSHLFALDALMATYPDALVVQTHRPVETIMASMCSLAQHTTEGWSTKFVGAQIGADAMDTWSRGLERFNAARAKYDSAQFYDVDYHDLIADPLGTVADIYRHFGLTLSDEARQAMTTVHAESQSGARAPKHSYSLADYGLTVEMVKERFAGL", "soluble on expression in E. coli": "soluble"}, {"sequence": "MTSFSLIATAAMGLESVVAEEVRRLGYECQVENGKVTFEGDALAICRANLWLRTADRVKLKVGEFRATTFEELFEQTKALPWADYLPKDAEFPVIGKSVKSTLFSVSDCQAIVKKAVVESLKARYHLSWFPETGPLYRIEVALHKDIATLTIDTSGAGLHKRGYRARQGEAPLRETLAAALVLLTNWTPDRPFVDPFCGSGTIAIEAALIGQNIAPGFNRDFVSEQWPWIGESVWEEARQEAEQMARYDQPLDICGIDLDPHMVEIAKMNAAEAGLSDLISFREGRAEQFRTDAQYGVIVGNPPYGERLGEQREVEALYRAIGRAFAALDTWSVYILTAHRGFETHYGRPATKRRKLFNGFIETHYYQYWGPRPPREARS", "soluble on expression in E. coli": "not soluble"}, {"sequence": "MTSIAISSGSFDPITLGHLDIIKRGAKVFDEVYVVVLNNSSKKPFFSVEERLDLIREATKDIPNVKVDSHSGLLVEYAKMRNANAILRGLRAVSDFEYEMQITSMNRKLDENIETFFIMTNNQYSFLSSSIVKEVARYGGSVVDLVPPVVERALKEKFQTPLK", "soluble on expression in E. coli": "not soluble"}, {"sequence": "MTSISSEYKLPEKTNTVSTNNSSLGKDEFLKILMTQVQNQDPLNPIDDKEFISQMATFSSLEQMMNLNTTMTQFVENQDPFTTYVDWMGKEVSWTDGKSATDKTGTVSSVKHFKGNYYLVLDDGTEISPANVMSVGQSSKLEHHHHHH", "soluble on expression in E. coli": "soluble"}, {"sequence": "MTSLEKARELLREFPVVDGHNDLPWALREQVRYDLDARDIAADQSAHLHTDLARLRSGGVGAQYWSVYVRSDLPGAVTATLEQIDCVRRLIDRHPGELRAALTAADMEAARAEGRIASLMGAEGGHSIDNSLATLRALYALGVRYMTLTHNDNNAWADSATDEPGVGGLSAFGREVVREMNREGMLVDLSHVAATTMRDALDTSTAPVIFSHSSSRAVCDHPRNIPDDVLERLSANGGMAMVTFVPKFVLQAAVDWTAEADDNMRAHGFHHLDSSPEAMKVHAAFEERVPRPVATVSTVADHLDHMREVAGVDHLGIGGDYDGTPFTPDGLGDVSGYPNLIAELLDRGWSQSDLAKLTWKNAVRVLDAAEDVSRGLRAARGPSNATIEQLDGTAAEQPEG", "soluble on expression in E. coli": "soluble"}, {"sequence": "MTSLVAYGSDSEGEDDDFFGKPTTEKEETTKNAEKEKEEESEKIAESDEKPTISSFFFSGDDDKAGSSDSDDSEGESVGPKKKRRSGESVTELDKEFTSSIFDNDYAREERMNARMLSRHVDLSDKPSEKERKKSKFTCKNYLKGKCRFGDKCRFSHPVHNRSSDAVNEVSISSEAKFYTTETPEAQVFHSKKFKSSAGQ", "soluble on expression in E. coli": "not soluble"}, {"sequence": "MTSNDSSENLRNRLAEKMAGDITLSEKPGESLKKWRLNFEISQTDIANYLKVSPSVISDYESGRRKSPGTLIVRKIVESLLEIDLERGGKKIHTYETMLNAESGSKSIYSTYEYTLPIQLAKLVNLIEGDIVYKGIEKPLYGFSVVDSQRAILELSSHEFQKLYGWSTDRAMIFTKVSTGKSPLVAIRVTNLKPGAVVLHGLRKEEVESVAVKMAEVDRVPLVATTMDLDQIVQLLKKYSQYYARE", "soluble on expression in E. coli": "not soluble"}, {"sequence": "MTSTFDRVATIIAETCDIPRETITPESHAIDDLGIDSLDFLDIAFAIDKAFGIKLPLEKWTQEVNDGKATTEQYFVLKNLAARIDELVAAKGALEHHHHHH", "soluble on expression in E. coli": "soluble"}, {"sequence": "MTSVTSSATSSPEPPTKVAAAMQTTTGETSISNETSFNASRETSLTALGFLDYLDEEQRAALLGEGLDISTLTWANQVTALRVLESLFNEHAYELVSAVIQHVAQEPGDNPHHFLKFSPEPSTENSWELTLDGPTVGLKVTFDPDGQITFKDAHLGLSPAEVVSVTEALDTSYSESQIKKAAEQLVGSLNPTQQAALQGSGLRGAQLTEEQKTLFLKMTSNWIDLANGDSGSEQQEEIADTFSDTYIIWNEQKDGSAFFQMKGPELDFSYKESVPENAELSARGVPNIQTSFQSPLEHHHHHH", "soluble on expression in E. coli": "soluble"}, {"sequence": "MTTETIQSNANLAPLPPHVPEHLVFDFDMYNPSNLSAGVQEAWAVLQESNVPDLVWTRCNGGHWIATRGQLIREAYEDYRHFSSECPFIPREAGEAYDFIPTSMDPPEQRQFRALANQVVGMPVVDKLENRIQELACSLIESLRPQGQCNFTEDYAEPFPIRIFMLLAGLPEEDIPHLKYLTDQMTRPDGSMTFAEAKEALYDYLIPIIEQRRQKPGTDAISIVANGQVNGRPITSDEAKRMCGLLLVGGLDTVVNFLSFSMEFLAKSPEHRQELIERPERIPAACEELLRRFSLVADGRILTSDYEFHGVQLKKGDQILLPQMLSGLDERENACPMHVDFSRQKVSHTTFGHGSHLCLGQHLARREIIVTLKEWLTRIPDFSIAPGAQIQHKSGIVSGVQALPLVWDPATTKAVHHHHHH", "soluble on expression in E. coli": "soluble"}, {"sequence": "MTTKRIDRDLPSSDDPSSAKRRIEFPEETLENDGAAAIKLLSLLLQCAEYVATDHLREASTLLSEISEICSPFGSSPERVVAYFAQALQTRVISSYLSGACSPLSEKPLTVVQSQKIFSALQTYNSVSPLIKFSHFTANQAIFQALDGEDSVHIIDLDVMQGLQWPALFHILASRPRKLRSIRITGFGSSSDLLASTGRRLADFASSLNLPFEFHPIEGIIGNLIDPSQLATRQGEAVVVHWMQHRLYDVTGNNLETLEILRRLKPNLITVVEQELSYDDGGSFLGRFVEALHYYSALFDALGDGLGEESGERFTVEQIVLGTEIRNIVAHGGGRRKRMKWKEELSRVGFRPVSLRGNPATQAGLLLGMLPWNGYTLVEENGTLRLGWKDLSLLTASAWKSQPFD", "soluble on expression in E. coli": "soluble"}, {"sequence": "MTTMNPFLVQSTLPYLAPHFDQIANHHYRPAFDEGMQQKRAEIAAIALNPQTPDFNNTILALEQSGELITRVTSVFFAMTAAHTNDELQRLDEQFSAELAELANDIYLNGELFARVDAVWQRRESLGLDSESIRLVEVIHQRFVLAGAKLAQADKAKLKVLNTEAATLTSQFNQRLLAANKSGGLVVNDIAQLAGMSEQEIALAAEAAREKGLDNKWLIPLLNTTQQPALAEMRDRATREKLFIAGWTRAEKNDANDTRAIIQRLVEIRAQQAKLLGFPHYAAWKIADQMAKTPEAALNFMREIVPAARQRASDELASIQAVIDKQQGGFSAQPWDWAFYAEQVRREKFDLDEAQLRPYFELNTVLNEGVFWTANQLFGIKFVERFDIPVYHPDVRVWEIFDHNGVGLALFYGDFFARDSKSGGAWMGNFVEQSTLNETHPVIYNVCNYQKPAAGEPALLLWDDVITLFHEFGHTLHGLFARQRYATLSGTNTPRDFVEFPSQINEHWATHPQVFARYARHYQSGAAMPDELQQKMRNASLFNKGYEMSELLSAALLDMRWHCLEENEAMQDVDDFELRALVAENMDLPAIPPRYRSSYFAHIFGGGYAAGYYAYLWTQMLADDGYQWFVEQGGLTRENGQRFREAILSRGNSEDLERLHRQWRGKAPQIMPMLQHRGLNI", "soluble on expression in E. coli": "not soluble"}, {"sequence": "MTTNAIDGSLWLTNAVQPERKTGNQILGKDDFLKILLAQLENQDPLNPMEDKDFIAQMASFSSLEQMMNIANLMQQWMQASSRDALLRYSEWIGKTVHWQDGETMMSAVVQSVMQKDGQVTLGLDNGTTIAADAVVKVEQKG", "soluble on expression in E. coli": "not soluble"}, {"sequence": "MTTSLIHMANHLDASTEEISLNYVLLGHPHHERAQHHPSYMDMIKGAIQAIDNGTGSSKAAILKYIAQNYHVGENLPKVNNHLRSVLKKAVDSGDIEQTRGHGATGSFRMGKECEKNLQVGIPVQTKPMLMLKEVRQKLENISKAEKTKPSTSSMSTNKKGKPISTMKKRGVMSKKRSSKNKMAPKAKSHGLKKKGPATKSSGLVHKAAGAKNEAAPTTKMELRTGTRKSYC", "soluble on expression in E. coli": "not soluble"}, {"sequence": "MTTSPDPYAALPKLPSFSLTSTSITDGQPLATPQVSGIMGAGGADASPQLRWSGFPSETRSFAVTVYDPDAPTLSGFWHWAVANLPANVTELPEGVGDGRELPGGALTLVNDAGMRRYVGAAPPPGHGVHRYYVAVHAVKVEKLDLPEDASPAYLGFNLFQHAIARAVIFGTYEQR", "soluble on expression in E. coli": "soluble"}]}]}
